From patent US20150329644A1 (BRIGHAM AND WOMEN S HOSPITAL, published 2015)

Biological target: T1, Human LSD2 (residues 51-822) with N-terminal extra residues GPGS, as used for co-crystallization (human, UniProt Q8NB78 51-822)
T1 construct: range 51-822; Construct of the LSD2-NPAC (PDB 4GUT) and LSD2-NPAC-H3K4M (PDB 4GUS, 4GUR) co-crystals; also called KDM1b; AOF1
T1 sequence: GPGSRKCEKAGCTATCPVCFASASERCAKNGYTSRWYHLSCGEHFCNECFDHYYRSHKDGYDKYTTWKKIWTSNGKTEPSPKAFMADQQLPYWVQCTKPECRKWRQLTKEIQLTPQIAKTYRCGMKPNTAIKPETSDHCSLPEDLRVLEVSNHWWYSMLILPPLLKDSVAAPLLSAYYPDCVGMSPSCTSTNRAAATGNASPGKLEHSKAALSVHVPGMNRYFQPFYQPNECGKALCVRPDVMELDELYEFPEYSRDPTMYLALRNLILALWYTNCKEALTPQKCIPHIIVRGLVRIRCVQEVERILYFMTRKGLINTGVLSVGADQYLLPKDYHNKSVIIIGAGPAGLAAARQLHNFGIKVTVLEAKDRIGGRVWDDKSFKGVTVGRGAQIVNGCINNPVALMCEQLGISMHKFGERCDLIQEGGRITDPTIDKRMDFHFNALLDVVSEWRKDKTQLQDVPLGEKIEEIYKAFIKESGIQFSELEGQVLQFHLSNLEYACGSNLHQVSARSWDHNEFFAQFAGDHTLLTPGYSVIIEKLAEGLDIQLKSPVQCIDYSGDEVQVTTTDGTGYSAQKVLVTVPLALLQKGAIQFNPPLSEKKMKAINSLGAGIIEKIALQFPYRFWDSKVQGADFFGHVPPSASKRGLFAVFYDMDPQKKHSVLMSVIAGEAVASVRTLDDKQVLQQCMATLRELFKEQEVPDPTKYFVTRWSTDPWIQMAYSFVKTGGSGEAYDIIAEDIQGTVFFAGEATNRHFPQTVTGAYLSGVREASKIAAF
Test: co-crystal structures of LSD2 with the NPAC linker region (residues 152-268)
Description: Crystallization and Data Collection. All crystals were grown using the hanging-drop vapor diffusion method. […] All crystals were examined on X8 Proteum system (Bruker AXS) and data sets were collected on beamline BL17U at Shanghai Synchrotron Radiation Facility (Shanghai, China).

- binding result: binds
B1: NPAC linker region (residues 152-268), as used for co-crystallization (other)
chain: SERGSKSPLKRAQEQSPRKRGRPPKDEKDLTIPESSTVKGMMAGPMAAFKWQPTASEPVKDADPHFHHFLLSQTEKPAVCYQAITKKLKICEEETGSTSIQAADSTAVNGSITPTDK
notes: Expressed with His6 and GST tags that were removed by 3C protease
